Our source for the reduction of ER stress (ERAI-sXBP1 reporter) in murine MIN6N8 cells with 0.5 mM palmitate; amount needed against recombinant mouse IL-22 and suppression of oxidative stress (nitrite production) in human LS174T cells with 0.5 mM palmitate; concentration needed against human recombinant IL-22 values is patent publication US20170143798A1.

Assay [1] has as its target mouse IL-22 receptor (IL-22R1) on murine MIN6N8 β-cells and murine islets (mouse) (UniProt Q80XZ4). Put plainly: cell-based or functional assay.
The target of assay [2] is T1, human IL-22 receptor (IL-22R1) on human LS174T cells and human islets (human) (UniProt Q8N6P7).
T1 sequence (looked up): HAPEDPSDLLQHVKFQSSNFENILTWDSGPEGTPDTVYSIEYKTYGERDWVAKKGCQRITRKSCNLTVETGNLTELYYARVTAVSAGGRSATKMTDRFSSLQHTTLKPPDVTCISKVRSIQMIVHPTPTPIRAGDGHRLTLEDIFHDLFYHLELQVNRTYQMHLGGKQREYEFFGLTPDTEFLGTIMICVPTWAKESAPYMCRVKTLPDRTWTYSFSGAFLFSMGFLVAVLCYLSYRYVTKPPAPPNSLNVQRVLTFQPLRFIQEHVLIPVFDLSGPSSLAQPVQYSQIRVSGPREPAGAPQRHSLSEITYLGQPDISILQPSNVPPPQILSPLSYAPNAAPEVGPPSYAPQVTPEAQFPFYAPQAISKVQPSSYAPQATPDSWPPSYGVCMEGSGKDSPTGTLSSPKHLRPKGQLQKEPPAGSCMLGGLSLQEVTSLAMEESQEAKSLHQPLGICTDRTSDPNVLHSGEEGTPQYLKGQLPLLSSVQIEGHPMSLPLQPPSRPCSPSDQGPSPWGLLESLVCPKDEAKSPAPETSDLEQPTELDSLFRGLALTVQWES
Put plainly: cell-based or functional assay.

UniProt Q80XZ4, sequence (Q80XZ4 16-581): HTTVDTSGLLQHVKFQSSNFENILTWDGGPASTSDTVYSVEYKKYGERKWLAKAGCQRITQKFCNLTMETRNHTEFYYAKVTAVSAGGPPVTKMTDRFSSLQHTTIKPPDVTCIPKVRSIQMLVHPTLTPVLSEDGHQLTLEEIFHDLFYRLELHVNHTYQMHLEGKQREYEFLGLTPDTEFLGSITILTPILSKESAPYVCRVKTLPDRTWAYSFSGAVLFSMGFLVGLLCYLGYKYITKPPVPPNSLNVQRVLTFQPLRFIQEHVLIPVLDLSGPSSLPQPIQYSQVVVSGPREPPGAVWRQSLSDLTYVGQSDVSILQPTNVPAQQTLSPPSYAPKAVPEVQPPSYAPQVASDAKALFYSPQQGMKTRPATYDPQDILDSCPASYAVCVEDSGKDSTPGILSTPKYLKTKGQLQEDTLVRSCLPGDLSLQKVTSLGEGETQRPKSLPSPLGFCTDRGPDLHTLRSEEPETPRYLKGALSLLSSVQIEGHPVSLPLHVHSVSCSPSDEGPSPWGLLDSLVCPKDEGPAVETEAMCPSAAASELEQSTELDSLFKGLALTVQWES

For the molecule “recombinant human IL-22 (from UniProt Q9GZX6 34-179) (ligand)”, in assay [1], the reduction of ER stress (ERAI-sXBP1 reporter) in murine MIN6N8 cells with 0.5 mM palmitate; amount needed against recombinant mouse IL-22 turned out to be 16 fold.

B1: recombinant mouse IL-22 (ligand, UniProt Q9JJY9 34-179, looked up)
chain: LPVNTRCKLEVSNFQQPYIVNRTFMLAKEASLADNNTDVRLIGEKLFRGVSAKDQCYLMKQVLNFTLEDVLLPQSDRFQPYMQEVVPFLTKLSNQLSSCHISGDDQNIQKNVRRLKETVKKLGESGEIKAIGELDLLFMSLRNACV
B1: the suppression of oxidative stress (nitrite production) in human LS174T cells with 0.5 mM palmitate; concentration needed against human recombinant IL-22 in assay [2] came to 64 fold.
